The results in this text go back to article PMC12363564, “Modulation of the PTPRS proteoglycan switch by antibodies binding to the membrane-proximal fibronectin-type III domain” (The Journal of Biological Chemistry, 2025).

Assay [1] addresses T1, 6xHis-tagged hPTPRS Fn9 (residues 1117-1270) (human, UniProt Q13332 1117-1270).
T1 chain: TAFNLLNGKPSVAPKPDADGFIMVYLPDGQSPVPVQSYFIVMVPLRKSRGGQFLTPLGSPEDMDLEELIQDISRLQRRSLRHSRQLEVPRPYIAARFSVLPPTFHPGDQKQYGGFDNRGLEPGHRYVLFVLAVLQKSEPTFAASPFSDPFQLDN
Kind of assay: BLI.

Assay [2] deals with T2, WT human PTPRS (hPTPRS) isoform 1 with a C-terminal HA tag (human, UniProt Q13332).
T2 construct: human PTPRS isoform 1, open reading frame in pcDNA3.1 (+); also called PTPRS-HA; hPTPRS-HA; source: HEK293T, transfected; in RIPA lysate (immunoprecipitation), on or in cells (flow cytometry, PLA); not shown: HA, C-terminal, kept
Kind of assay: flow cytometry on cells; HEK293T cells transfected with hPTPRS-HA (WT or Fn9mut) or empty vector, incubated 1 h with the antibody, AF568-labelled anti-mouse IgG. Conditions: one partner purified.

Assay [3] deals with T3, C-terminally 6xHis tagged mouse PTPRS (mPTPRS) ECD (Mus musculus, UniProt B0V2N1).
T3 construct: also called mPTPRS ectodomain; PTPRS ectodomain; source: HEK293T, transiently transfected, supernatant; purified (Ni-NTA, HiTrap heparin); not shown: His6, C-terminal, kept
Kind of assay: SPR; Octet SF3; anti-PTPRS Ab immobilised by amine coupling on a PCH sensor chip; analyte mPTPRS ECD 2500 nM to 9.77 nM; 1x PBS with 0.005% Tween-20; multi-cycle kinetics. Conditions: both partners purified.

The target of assay [4] is T1, 6xHis-tagged hPTPRS Fn9 (residues …). Description: BLI.
In assay [5] the target is T4, C-terminally 6xHis tagged mouse PTPRS (mPTPRS) ECD (mouse, UniProt B0V2N1 30-1257).
T4 chain: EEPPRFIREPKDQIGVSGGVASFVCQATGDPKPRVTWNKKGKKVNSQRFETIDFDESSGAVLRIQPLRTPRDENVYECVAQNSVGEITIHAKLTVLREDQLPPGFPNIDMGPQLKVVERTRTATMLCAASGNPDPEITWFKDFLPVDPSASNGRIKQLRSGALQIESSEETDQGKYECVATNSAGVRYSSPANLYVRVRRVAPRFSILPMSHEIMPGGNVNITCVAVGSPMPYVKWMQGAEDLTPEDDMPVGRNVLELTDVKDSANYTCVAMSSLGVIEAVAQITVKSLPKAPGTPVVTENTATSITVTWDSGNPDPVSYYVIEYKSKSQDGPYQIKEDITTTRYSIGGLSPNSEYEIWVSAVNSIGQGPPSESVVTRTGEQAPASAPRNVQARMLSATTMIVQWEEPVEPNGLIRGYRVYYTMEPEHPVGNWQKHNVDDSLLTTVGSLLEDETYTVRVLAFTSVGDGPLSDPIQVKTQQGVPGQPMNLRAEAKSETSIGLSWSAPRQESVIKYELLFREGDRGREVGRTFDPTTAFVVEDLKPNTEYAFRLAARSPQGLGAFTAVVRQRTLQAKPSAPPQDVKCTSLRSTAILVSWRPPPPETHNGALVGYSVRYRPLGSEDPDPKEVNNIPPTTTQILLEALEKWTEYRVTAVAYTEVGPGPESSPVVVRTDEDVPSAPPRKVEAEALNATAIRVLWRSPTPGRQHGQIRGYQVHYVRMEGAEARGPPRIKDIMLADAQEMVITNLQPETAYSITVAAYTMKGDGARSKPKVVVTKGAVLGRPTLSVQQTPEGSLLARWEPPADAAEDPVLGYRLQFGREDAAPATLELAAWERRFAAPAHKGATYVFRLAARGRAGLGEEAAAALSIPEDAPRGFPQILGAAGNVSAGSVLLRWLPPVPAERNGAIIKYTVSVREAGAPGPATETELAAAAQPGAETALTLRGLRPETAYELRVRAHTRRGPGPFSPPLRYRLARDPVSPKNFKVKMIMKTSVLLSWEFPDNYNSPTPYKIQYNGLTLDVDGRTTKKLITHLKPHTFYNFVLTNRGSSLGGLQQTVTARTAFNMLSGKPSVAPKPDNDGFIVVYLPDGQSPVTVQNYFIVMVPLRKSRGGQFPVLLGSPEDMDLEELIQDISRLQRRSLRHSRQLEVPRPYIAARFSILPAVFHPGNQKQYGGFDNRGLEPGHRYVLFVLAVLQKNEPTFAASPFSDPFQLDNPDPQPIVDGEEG
Description: BLI.

Assay [6] concerns the target T3, C-terminally 6xHis tagged mouse PTPRS …. Kind of assay: BLI; His-tagged ligand (mPTPRS ECD or hPTPRS Fn9) immobilised on anti-6xHis probes at 100 to 200 nM; antibodies or scFv-Fc fusions as analytes; Gator K buffer (0.02% BSA, 0.002% Tween-20 in PBS, pH 7.4), 37 °C; biphasic (2:1) association model. Conditions: both partners purified.
The target in assay [7] is T5, PTPRS^Δ326 (hPTPRS-HA N-terminal truncation lacking Ig-like domains 1 to 3) (Homo sapiens, UniProt Q13332, point mutant).
T5 construct: human PTPRS isoform 1, N-terminal truncation lacking Ig-like domains 1 to 3, obtained from WT hPTPRS-HA by site-directed mutagenesis; source: HEK293T, transfected, in RIPA lysate; not shown: HA, C-terminal, kept
Kind of assay: co-IP; RIPA lysates of HEK293T cells overexpressing HA-tagged full length or truncated hPTPRS incubated with the antibody for 2 h at 4 °C, Protein G Sepharose, anti-HA blot. Conditions: one partner purified.

For assay [8], the target named is T6, PTPRS^Δ1096 (hPTPRS-HA N-terminal truncation lacking the ECD including most of Fn8) (Homo sapiens, UniProt Q13332, point mutant).
T6 construct: human PTPRS isoform 1, N-terminal truncation lacking the ECD including most of Fn8, obtained from WT hPTPRS-HA by site-directed mutagenesis; source: HEK293T, transfected, in RIPA lysate; not shown: HA, C-terminal, kept
Described as above. Conditions: one partner purified.

Assay [9] has as its target T4, C-terminally 6xHis tagged mouse PTPRS …. Description: SPR.
Assay [10] concerns the target T3, C-terminally 6xHis tagged mouse PTPRS …. Kind of assay: BLI; data not shown; 9H5 on C-terminally 6xHis tagged mPTPRS ECD immobilised on an anti-6xHis probe. Conditions: both partners purified.

T2 sequence (Q13332 30-1948): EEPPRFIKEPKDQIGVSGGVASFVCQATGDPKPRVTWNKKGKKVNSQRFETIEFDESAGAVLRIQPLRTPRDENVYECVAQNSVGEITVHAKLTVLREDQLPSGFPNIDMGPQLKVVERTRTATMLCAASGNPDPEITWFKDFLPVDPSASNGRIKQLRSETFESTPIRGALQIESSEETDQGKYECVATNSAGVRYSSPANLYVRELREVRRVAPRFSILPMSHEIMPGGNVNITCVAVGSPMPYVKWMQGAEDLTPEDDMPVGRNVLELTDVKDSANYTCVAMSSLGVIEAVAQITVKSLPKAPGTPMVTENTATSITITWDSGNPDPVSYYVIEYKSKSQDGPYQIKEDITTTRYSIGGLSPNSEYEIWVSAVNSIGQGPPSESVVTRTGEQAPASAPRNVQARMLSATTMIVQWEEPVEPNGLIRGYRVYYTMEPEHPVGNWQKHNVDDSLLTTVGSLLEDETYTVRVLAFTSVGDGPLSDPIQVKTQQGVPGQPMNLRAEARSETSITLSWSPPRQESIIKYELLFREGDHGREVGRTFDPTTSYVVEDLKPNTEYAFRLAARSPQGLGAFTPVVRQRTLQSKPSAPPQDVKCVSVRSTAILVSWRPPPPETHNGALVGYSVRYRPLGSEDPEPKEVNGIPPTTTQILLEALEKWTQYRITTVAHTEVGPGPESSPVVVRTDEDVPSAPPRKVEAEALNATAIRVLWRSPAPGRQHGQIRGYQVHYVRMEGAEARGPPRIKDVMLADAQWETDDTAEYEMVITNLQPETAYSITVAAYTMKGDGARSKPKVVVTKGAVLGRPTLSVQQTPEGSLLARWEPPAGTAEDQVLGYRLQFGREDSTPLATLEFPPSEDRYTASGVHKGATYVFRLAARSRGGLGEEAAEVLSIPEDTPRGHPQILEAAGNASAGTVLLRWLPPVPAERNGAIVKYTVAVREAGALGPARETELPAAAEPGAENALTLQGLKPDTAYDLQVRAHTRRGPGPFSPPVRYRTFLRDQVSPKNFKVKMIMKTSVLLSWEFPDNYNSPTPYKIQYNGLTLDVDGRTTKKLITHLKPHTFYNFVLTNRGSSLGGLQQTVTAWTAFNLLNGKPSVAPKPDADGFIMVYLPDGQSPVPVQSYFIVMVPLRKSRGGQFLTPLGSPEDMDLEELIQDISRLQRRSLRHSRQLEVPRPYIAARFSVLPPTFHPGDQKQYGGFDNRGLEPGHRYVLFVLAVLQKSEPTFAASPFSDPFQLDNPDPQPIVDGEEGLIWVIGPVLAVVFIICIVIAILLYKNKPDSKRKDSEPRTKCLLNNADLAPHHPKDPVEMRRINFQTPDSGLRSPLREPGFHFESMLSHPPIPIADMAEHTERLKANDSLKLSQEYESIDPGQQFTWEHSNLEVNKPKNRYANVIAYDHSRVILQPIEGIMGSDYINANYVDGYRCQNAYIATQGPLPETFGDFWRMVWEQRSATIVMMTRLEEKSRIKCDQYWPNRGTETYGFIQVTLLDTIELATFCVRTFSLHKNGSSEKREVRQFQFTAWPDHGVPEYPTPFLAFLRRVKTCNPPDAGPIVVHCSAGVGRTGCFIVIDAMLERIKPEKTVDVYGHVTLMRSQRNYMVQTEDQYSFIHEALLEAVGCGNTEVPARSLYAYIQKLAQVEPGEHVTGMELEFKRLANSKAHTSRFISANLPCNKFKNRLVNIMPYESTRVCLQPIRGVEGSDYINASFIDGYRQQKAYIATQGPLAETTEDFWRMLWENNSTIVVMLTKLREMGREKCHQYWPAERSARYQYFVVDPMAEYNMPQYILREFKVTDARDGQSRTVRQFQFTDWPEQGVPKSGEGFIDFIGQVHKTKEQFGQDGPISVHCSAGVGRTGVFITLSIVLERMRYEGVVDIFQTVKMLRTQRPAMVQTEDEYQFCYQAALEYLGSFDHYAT

B1: 13G5 (mouse monoclonal antibody, IgG2b/κ) (antibody, V domains shown)
VH: EVKLVESGGGLVQPGGSLKLSCATSGFTFSDYYMYWVRQTPEKRLEWVAYISNGGGSTYYPDTVKGRFTISRDNAKNTLYLQMSRLKSEDTAMYYCARHVYYGRNYAMDYWGQGTSVTVSS
VL: DIQMTQTTSSLSASLGDRVTISCRASQDISNYLNWYQQKPDGTVKLLIYYTSRLHSGVPSRFSGSGSGTDYSLTISNLEQEDIATYFCQQGNTLPYTFGGGTKLEIK
notes: VH of 13G5; constant region of the mouse IgG2b heavy chain; VL of 13G5; constant region of the mouse κ light chain; IgG2b/κ; also called anti-PTPRS Ab 13G5; source: production contracted to Viva Biotech
As for B1, the koff in [1] was found to be 0.003 s⁻¹; in [5], 0.083 s⁻¹; in assay [9], 0.00079 s⁻¹. For the same molecule, the “mean fluorescence relative to 22H8” value in [2] was about 2 fold. In addition, the Kd in [3] is 95 nM; in assay [4] it was 6.03 nM; in assay [6], 122 ± 1.9 nM. For the same molecule, the binding result in assay [7] and in [8] was “binds” throughout.

B2: 9H5 (mouse monoclonal antibody, IgG1/κ) (antibody, V domains shown)
VH: QVQLVETGGGLVRPGNSLKLSCVTSGFTFSNYRMHWLRQPPGKRLEWIAVITVKSDNYGANYAESVKGRFTISRDDSKSSVYLQMNRLREEDTATYYCSRSVYYGYVLAFDYWGQGTTLTVSS
VL: DIQMTQTTSSLSASLGDRVTISCRASQDISNYLNWYQQKPDGTVKLLIYYTSRLHSGVPSRFSGSGSGTDYSLTISNLEQEDIATYFCQQGNTLPWTFGGGTKLEIK
notes: VH of 9H5; constant region of the mouse IgG1 heavy chain; VL of 9H5; constant region of the mouse κ light chain; IgG1/κ; source: production contracted to Viva Biotech
Consider B2, for which the binding result in assay [10] was “no binding”.
